# Results from patent US20150344570A1 (published 2015).
# Target: T1, FcγRIIIa F extracellular domain with C-terminal His tag (human, UniProt P08637 17-208)
# T1 construct: extracellular domain; Soluble receptor, F158 allotype; also called FcgRIIIa F; FcgRIIIaF; not shown: His tag at the C terminus
# Test: SPR (Biacore); KD for FcγRIIb divided by KD for FcγRIIIa F
# Protocol: The prepared antibodies were assayed as to the KDs for FcγRIIIa and FcγRIIb according to the method described in Reference Example 2.
# Analysis of interaction between objective antibody and the FcγR was carried out using Biacore T100 (GE Healthcare). HBS-EP+ (GE Healthcare) was used as the running buffer, and the measurement temperature was set to 25° C. Chips produced by immobilizing the antigen peptide by the amine coupling method to a Series S Sencor Chip CM5 (GE Healthcare), or alternatively, chips produced by allowing preliminarily biotinylated antigen peptides to interact with and immobilize onto a Series S Sensor Chip SA (certified) (GE Healthcare) were used. Antibodies of interest were captured onto an antigen peptide-immobilized chip, and allowed to interact to each FcγR diluted with running buffer. To regenerate and repeatedly use the chip, the antibodies captured on the chip were washed off by reacting 10 mM glycine-HCl, pH 1.5.
# T1 sequence (P08637 17-208): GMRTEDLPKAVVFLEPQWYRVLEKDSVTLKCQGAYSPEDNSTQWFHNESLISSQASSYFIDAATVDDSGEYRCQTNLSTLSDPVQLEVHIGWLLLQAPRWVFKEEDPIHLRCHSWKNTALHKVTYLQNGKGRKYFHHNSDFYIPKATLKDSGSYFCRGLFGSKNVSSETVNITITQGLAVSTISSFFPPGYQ
row,Binder,FcγRIIIa F/FcγRIIb ratio
1,"GpH7-A5/GpH7-B3/GpL16-k0 (antibody, human IgG1, kappa, also called A5/B3; HeCon Ab) heavy 1: not shown heavy 2: not shown light: DIVMTQSPLSLPVTPGEPASISCQASESLVHSNRNTYLHWYLQKPGQSPQLLIYKVSNRFSGVPDRFSGSGSGTDFTLKISRVEAEDVGVYYCSQNTHVPPTFGQGTKVEIERTVAAPSVFIFPPSDEQLKSGTASVVCLLNNFYPREAKVQWKVDNALQSGNSQESVTEQDSKDSTYSLSSTLTLSKADYEKHKVYACEVTHQGLSSPVTKSFNRGEC",1.9
2,"GpH7-A57/GpH7-B78/GpL16-k0 (antibody, human IgG1, kappa, Anti-glypican-3 IgG1; also called A57/B78) heavy 1: QVQLVQSGAEVKKPGASVTVSCKASGYTFTDYEMHWIRQPPGEGLEWIGAIDPKTGDTAYSESFQDRVTLTADKSTSTAYMELSSLTSEDTAVYYCTRFYSYTYWGQGTLVTVSSASTKGPSVFPLAPSSKSTSGGTAALGCLVKDYFPEPVTVSWNSGALTSGVHTFPAVLQSSGLYSLSSVVTVPSSSLGTQTYICNVNHKPSNTKVDKKVEPKSCDKTHTCPPCPAPELLGGPDVFLFPPKPKDTLMISRTPEVTCVVVDVSHEDPEVKFNWYVDGVEVHNAKTKPREEQYNSTYRVVSVLTVLHQDWLNGKEYKCKVSNKALPLPEEKTISKAKGQPREPQVYTLPPSRKELTKNQVSLTCLVKGFYPSDIAVEWESNGQPENNYKTTPPVLDSDGSFFLYSKLTVDKSRWQQGNVFSCSVMHEALHNRYTQKSLSLSP heavy 2: QVQLVQSGAEVKKPGASVTVSCKASGYTFTDYEMHWIRQPPGEGLEWIGAIDPKTGDTAYSESFQDRVTLTADKSTSTAYMELSSLTSEDTAVYYCTRFYSYTYWGQGTLVTVSSASTKGPSVFPLAPSSKSTSGGTAALGCLVKDYFPEPVTVSWNSGALTSGVHTFPAVLQSSGLYSLSSVVTVPSSSLGTQTYICNVNHKPSNTKVDKKVEPKSCDKTHTCPPCPAPELLGGPDVFLFPPKPKDTLMISRTPEVTCVVVDVSHEDPEVKFNWYVDGVEVHNAKTKPREEQYNSTYRVVSVLTVLHQDWLNGKEYKCKVSNKALPLPEEKTISKAKGQPREPQVYTLPPSRDELTKNQVSLTCLVKGFYPSDIAVEWESNGQPENNYKTTPPVLDSDGSFFLYSKLTVDKSRWQQGNVFSCSVMHEALHNHYTQESLSLSP light: DIVMTQSPLSLPVTPGEPASISCQASESLVHSNRNTYLHWYLQKPGQSPQLLIYKVSNRFSGVPDRFSGSGSGTDFTLKISRVEAEDVGVYYCSQNTHVPPTFGQGTKVEIERTVAAPSVFIFPPSDEQLKSGTASVVCLLNNFYPREAKVQWKVDNALQSGNSQESVTEQDSKDSTYSLSSTLTLSKADYEKHKVYACEVTHQGLSSPVTKSFNRGEC",100
3,"GpH7-TA7/GpH7-B78/GpL16-k0 (antibody, human IgG1, kappa, Heterodimerized anti-glypican-3 IgG1; also called TA7/B78) heavy 1: QVQLVQSGAEVKKPGASVTVSCKASGYTFTDYEMHWIRQPPGEGLEWIGAIDPKTGDTAYSESFQDRVTLTADKSTSTAYMELSSLTSEDTAVYYCTRFYSYTYWGQGTLVTVSSASTKGPSVFPLAPSSKSTSGGTAALGCLVKDYFPEPVTVSWNSGALTSGVHTFPAVLQSSGLYSLSSVVTVPSSSLGTQTYICNVNHKPSNTKVDKKVEPKSCDKTHTCPPCPAPEYLWGPSVFLFPPKPKDTLMISRTPEVTCVVVDVSHEDPEVKFNWYVDGVEVHNAKTKPREEQYNATYRVVSVLTVLHQDWLNGKEYKCKVSNKALPAPIEKTISKAKGQPREPQVYTLPPSRKELTKNQVSLTCLVKGFYPSDIAVEWESNGQPENNYKTTPPVLDSDGSFFLYSKLTVDKSRWQQGNVFSCSVMHEALHNRYTQKSLSLSP heavy 2: QVQLVQSGAEVKKPGASVTVSCKASGYTFTDYEMHWIRQPPGEGLEWIGAIDPKTGDTAYSESFQDRVTLTADKSTSTAYMELSSLTSEDTAVYYCTRFYSYTYWGQGTLVTVSSASTKGPSVFPLAPSSKSTSGGTAALGCLVKDYFPEPVTVSWNSGALTSGVHTFPAVLQSSGLYSLSSVVTVPSSSLGTQTYICNVNHKPSNTKVDKKVEPKSCDKTHTCPPCPAPELLGGPDVFLFPPKPKDTLMISRTPEVTCVVVDVSHEDPEVKFNWYVDGVEVHNAKTKPREEQYNSTYRVVSVLTVLHQDWLNGKEYKCKVSNKALPLPEEKTISKAKGQPREPQVYTLPPSRDELTKNQVSLTCLVKGFYPSDIAVEWESNGQPENNYKTTPPVLDSDGSFFLYSKLTVDKSRWQQGNVFSCSVMHEALHNHYTQESLSLSP light: DIVMTQSPLSLPVTPGEPASISCQASESLVHSNRNTYLHWYLQKPGQSPQLLIYKVSNRFSGVPDRFSGSGSGTDFTLKISRVEAEDVGVYYCSQNTHVPPTFGQGTKVEIERTVAAPSVFIFPPSDEQLKSGTASVVCLLNNFYPREAKVQWKVDNALQSGNSQESVTEQDSKDSTYSLSSTLTLSKADYEKHKVYACEVTHQGLSSPVTKSFNRGEC",244

# Other lines, results leading:
row,FcγRIIIa F/FcγRIIb ratio,Binder
1,2.5,"GpH7-G1d/GpL16-k0 (antibody, human IgG1, kappa, Anti-glypican-3 IgG1 with C-terminal Gly and Lys removed; also called native IgG1) heavy: not shown light: DIVMTQSPLSLPVTPGEPASISCQASESLVHSNRNTYLHWYLQKPGQSPQLLIYKVSNRFSGVPDRFSGSGSGTDFTLKISRVEAEDVGVYYCSQNTHVPPTFGQGTKVEIERTVAAPSVFIFPPSDEQLKSGTASVVCLLNNFYPREAKVQWKVDNALQSGNSQESVTEQDSKDSTYSLSSTLTLSKADYEKHKVYACEVTHQGLSSPVTKSFNRGEC"
2,14,"GpH7-TA7/GpH7-B3/GpL16-k0 (antibody, human IgG1, kappa, Heterodimerized anti-glypican-3 IgG1; also called TA7/B3) heavy 1: QVQLVQSGAEVKKPGASVTVSCKASGYTFTDYEMHWIRQPPGEGLEWIGAIDPKTGDTAYSESFQDRVTLTADKSTSTAYMELSSLTSEDTAVYYCTRFYSYTYWGQGTLVTVSSASTKGPSVFPLAPSSKSTSGGTAALGCLVKDYFPEPVTVSWNSGALTSGVHTFPAVLQSSGLYSLSSVVTVPSSSLGTQTYICNVNHKPSNTKVDKKVEPKSCDKTHTCPPCPAPEYLWGPSVFLFPPKPKDTLMISRTPEVTCVVVDVSHEDPEVKFNWYVDGVEVHNAKTKPREEQYNATYRVVSVLTVLHQDWLNGKEYKCKVSNKALPAPIEKTISKAKGQPREPQVYTLPPSRKELTKNQVSLTCLVKGFYPSDIAVEWESNGQPENNYKTTPPVLDSDGSFFLYSKLTVDKSRWQQGNVFSCSVMHEALHNRYTQKSLSLSP heavy 2: not shown light: DIVMTQSPLSLPVTPGEPASISCQASESLVHSNRNTYLHWYLQKPGQSPQLLIYKVSNRFSGVPDRFSGSGSGTDFTLKISRVEAEDVGVYYCSQNTHVPPTFGQGTKVEIERTVAAPSVFIFPPSDEQLKSGTASVVCLLNNFYPREAKVQWKVDNALQSGNSQESVTEQDSKDSTYSLSSTLTLSKADYEKHKVYACEVTHQGLSSPVTKSFNRGEC"
3,7.9,"GpH7-A5/GpH7-B78/GpL16-k0 (antibody, human IgG1, kappa, Heterodimerized anti-glypican-3 IgG1; also called A5/B78) heavy 1: not shown heavy 2: QVQLVQSGAEVKKPGASVTVSCKASGYTFTDYEMHWIRQPPGEGLEWIGAIDPKTGDTAYSESFQDRVTLTADKSTSTAYMELSSLTSEDTAVYYCTRFYSYTYWGQGTLVTVSSASTKGPSVFPLAPSSKSTSGGTAALGCLVKDYFPEPVTVSWNSGALTSGVHTFPAVLQSSGLYSLSSVVTVPSSSLGTQTYICNVNHKPSNTKVDKKVEPKSCDKTHTCPPCPAPELLGGPDVFLFPPKPKDTLMISRTPEVTCVVVDVSHEDPEVKFNWYVDGVEVHNAKTKPREEQYNSTYRVVSVLTVLHQDWLNGKEYKCKVSNKALPLPEEKTISKAKGQPREPQVYTLPPSRDELTKNQVSLTCLVKGFYPSDIAVEWESNGQPENNYKTTPPVLDSDGSFFLYSKLTVDKSRWQQGNVFSCSVMHEALHNHYTQESLSLSP light: DIVMTQSPLSLPVTPGEPASISCQASESLVHSNRNTYLHWYLQKPGQSPQLLIYKVSNRFSGVPDRFSGSGSGTDFTLKISRVEAEDVGVYYCSQNTHVPPTFGQGTKVEIERTVAAPSVFIFPPSDEQLKSGTASVVCLLNNFYPREAKVQWKVDNALQSGNSQESVTEQDSKDSTYSLSSTLTLSKADYEKHKVYACEVTHQGLSSPVTKSFNRGEC"
